Assay [1] deals with T1, human Flag-tagged soluble TWEAK (amino acids 106-249) (human, UniProt O43508 106-249).
T1 construct: The sentence gives amino acids 106-249 without naming the entry; also called Human TWEAK; not shown: Flag tag
T1 sequence: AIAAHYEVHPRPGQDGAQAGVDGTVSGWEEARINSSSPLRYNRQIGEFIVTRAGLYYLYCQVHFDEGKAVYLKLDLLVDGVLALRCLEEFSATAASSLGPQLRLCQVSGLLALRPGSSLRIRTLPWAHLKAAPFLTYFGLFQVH
Put plainly: receptor interaction ELISA: Flag-TWEAK 2.5 ng/ml preincubated with antibody, then on coated human Fn14:Fc (competitor m21). The procedure:
(§1) 96-well Maxisorp® plates (Nunc) were coated with 100 μl 1 μg/ml human Fn14:Fc (extracellular domain of human Fn14 (amino acids 1-75 of SEQ ID NO: 98) fused to Fc portion of human IgG1) in PBS per well for 1.5 h at room temperature and blocked with a solution of 5% FBS in PBS for 30 minutes at room temperature under shaking. […] After washing the Fn14-coated plate once with wash buffer (0.1% Tween® 20 in PBS), 100 μl of the TWEAK-antibody solution were transferred to each well and the plate was incubated for 1 h at room temperature, followed by four washes with wash buffer. Wells were filled with 100 μl of anti-FLAG-HRP detection antibody, diluted 1:5000 in blocking buffer, and incubated for 1 h at room temperature. After four more wash steps, the signal was developed by addition of 100 μl 3,3,5,5-Tetramethylbenzidine (TMB) solution for approximately ten minutes. The reaction was stopped by adding 100 μl of 1 N HCl, and absorbance measured at 450 nm (reference wavelength 620 nm).

In assay [2] the target is T2, Human recombinant soluble TWEAK (Example 6) (human, UniProt O43508 99-249, limits assumed).
T2 sequence: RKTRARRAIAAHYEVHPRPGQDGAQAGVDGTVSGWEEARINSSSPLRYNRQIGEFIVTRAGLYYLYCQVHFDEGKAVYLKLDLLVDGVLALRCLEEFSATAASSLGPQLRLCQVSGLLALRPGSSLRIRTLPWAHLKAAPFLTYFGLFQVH
Nature of the assay: cell-based or functional assay.

The target of assay [3] is T3, Mouse soluble TWEAK (untagged, Example 5) (mouse, UniProt O54907 105-249, limits assumed).
T3 construct: also called Murine TWEAK
T3 sequence: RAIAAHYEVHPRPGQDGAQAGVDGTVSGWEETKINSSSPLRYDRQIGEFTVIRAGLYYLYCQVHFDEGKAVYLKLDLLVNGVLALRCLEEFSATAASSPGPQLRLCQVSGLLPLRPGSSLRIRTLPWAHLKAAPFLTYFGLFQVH
Nature of the assay: receptor interaction ELISA: mouse soluble TWEAK preincubated with antibody, then on coated mouse Fn14:Fc (competitor m22). The procedure:
Briefly, Maxisorp plates were coated with mouse Fn14:Fc (extracellular domain of mouse Fn14 (amino acids 1-75 of SEQ ID NO: 98) fused to Fc portion of human IgG1) as described above for human Fn14:Fc, followed by blocking and washing. […] After 1 h of incubation at room temperature and four washes, biotinylated anti-mouse TWEAK antibody at 125 ng/ml in blocking buffer was added for 1 h at room temperature, followed by another four wash steps. The TWEAK antibody was detected by incubation with streptavidin-HRP, diluted 1:5000 in blocking buffer, for 30 minutes at room temperature. Signal was developed and absorbance measured as described above.

Assay [4] addresses T4, Biotinylated human soluble TWEAK (amino acids 99-249 of SEQ ID NO: 68) (human, UniProt O43508 99-249, biotinylated).
T4 construct: also called Human TWEAK
T4 sequence: T2 sequence
Nature of the assay: SPR (Biacore), biotinylated soluble TWEAK on streptavidin chip, 25 C. The procedure:
A Biacore 2000 instrument was used with a Biacore streptavidin coated sensor mounted into the system. The system buffer HBS-ET (10 mM HEPES pH 7.4, 150 mM NaCl, 1 mM EDTA, 0.05% Tween® 20) was used at a flow rate of 100 μl/min. The sample buffer was the system buffer. Biotinylated human soluble TWEAK (amino acids 99-249 of SEQ ID NO: 68) and biotinylated murine soluble TWEAK (amino acids 81-225 of SEQ ID NO: 69) was immobilized on different flow cells on the SA sensor at 150 RU each. The flow cell FC1 was used as a blank reference cell. Each antibody was injected into the system as an analyte at 100 nM at 100 μl/min for 2 min association time. The dissociation of the immunecomplexes were monitored for 5 min. The sensor surface was washed with HBS-ET for 10 seconds and regenerated using 2×2 minutes injections with 10 mM glycine pH 2.25. This procedure was done at 25° C. The kinetically rate limiting step of the complex dissociation phase in the interval [240 s-300 s] was taken to calculate the dissociation rate kd [1/s] (Biacore Evaluation Software 4.0). According to the equation t1/2 diss=ln(2)/(60×kd), the half-life of the immunocomplexes in minutes was calculated.
(In general: Surface plasmon resonance follows binding to a sensor surface in real time, without labels.)

The target in assay [5] is T4, Biotinylated human soluble TWEAK (amino …). Put plainly: SPR (Biacore), biotinylated soluble TWEAK on streptavidin chip, 37 C.
Assay [6] has as its target T1, human Flag-tagged soluble TWEAK (amino …). Nature of the assay: receptor interaction ELISA: Flag-TWEAK preincubated with antibody, then on coated human Fn14:Fc (competitor m21). As to the method: as §1
Assay [7] has as its target T2, Human recombinant soluble TWEAK …. Put plainly: cell-based or functional assay. The source holds these as a separate data set.
The target in assay [8] is recombinant human IL-17 (Peprotech #200-17) (human, UniProt Q16552 20-155). Nature of the assay: cell-based or functional assay.
Chain of recombinant human IL-17 (Peprotech #200-17) (Q16552 20-155 limits assumed): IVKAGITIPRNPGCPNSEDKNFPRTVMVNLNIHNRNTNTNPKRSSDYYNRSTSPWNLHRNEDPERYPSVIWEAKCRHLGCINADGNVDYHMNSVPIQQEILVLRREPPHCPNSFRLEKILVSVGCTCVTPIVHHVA
The target in assay [9] is T5, Recombinant human TWEAK (R&D Systems; Cat. #1090-TW/CF) (human, UniProt O43508 97-249, limits assumed).
T5 sequence: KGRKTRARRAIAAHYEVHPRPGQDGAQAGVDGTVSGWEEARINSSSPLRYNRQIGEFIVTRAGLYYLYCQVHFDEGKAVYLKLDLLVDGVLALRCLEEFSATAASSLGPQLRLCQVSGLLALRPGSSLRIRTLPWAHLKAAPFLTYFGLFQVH
Put plainly: cell-based or functional assay.

Changes are numbered by the printed parent chain.

B1: <TWEAK> 305 (rabbit) (antibody, V domains shown)
VH: QEQLVESGGGLVQPGGSLTLSCKASGFDFSTYYMSWVRQAPGKGLEWIGTVYVRQGTTYYASWLNGRFTISSDNAQNTVDLKMNSLTAADTATYFCAKGGYNYDDAFVIWGPGTLVTVSF
VL: AIEMTQTPFSVSAAVGGTVTINCQASQNIYSNLAWYQQKPGQPPKLLMYTASYLASGVPSRFKGSGSRTEYTLTISGVQCADAATYYCQTAYYNSRPDTVAFGGGTEVVVK
notes: Rabbit parent antibody
As usually defined, the IC50 is the concentration that gives 50% inhibition. Low values mean inhibition by little substance, high ones a need for much substance. For the molecule B1, the IC50 in assay [1] stood at 2.5 ng/mL. For the same molecule, the “Inhibition of IL-8 Secretion IC50 [ng/ml] (A375 cells)” value in assay [2] turned out to be 99 ng/mL.

B2: Humanized <TWEAK> 305- antibody 28 (antibody, V domains shown)
VH: EVQLLESGGGLVQPGGSLTLSCAASGFDFSTYYMSWVRQAPGKGLEWVSTVYVRQGTTYYASWLNGRFTISRDNSKNTLYLQMNSLRAEDTAVYYCAKGGYNYDDAFVIWGQGTLVTVSS
VL: DIQMTQSPSSVSASVGDRVTITCQASQNIYSNLAWYQQKPGKAPKLLIYTASYLASGVPSRFSGSGSGTDYTLTISSLQPEDFATYYCQTAYYNSRPDTVAFGGGTKVEIK
As to B2, the IC50 in assay [3] amounted to 6.5 ng/mL; in assay [6] it was 1.5 ng/mL. Further, in assay [4], the “Biacore t/2 diss. [min] 25° C. human” value came to 87 min. In addition, the “Biacore t/2 diss. [min] 37° C. human” value in [5] came out at 115 min. Moreover, the “Inhibition of IL8-Secretion [ng/ml] (A375 cells)” value (“Inhibition of IL8-Secretion” below) in assay [7] was 165 ng/mL.

B3: Humanized <TWEAK> 305- antibody 31 (antibody, V domains shown)
VH: B2 VH
VL: B2 VL with D1A, Q3R, V11F, V15T, S77C, P80S
B3: the 50% inhibitory concentration (IC50) in [3] is 7.1 ng/mL; in [6], 1.7 ng/mL. In [4], the “Biacore t/2 diss. [min] 25° C. human” value was 115 min. In [5], the “Biacore t/2 diss. [min] 37° C. human” value is 151 min. Besides, the “Inhibition of IL8-Secretion” value in assay [7] was 94 ng/mL.

B4: Humanized <TWEAK> 305- antibody 32 (antibody, V domains shown)
VH: B2 VH with T19R, Y80D
VL: B2 VL with S10T, V11L, D70E, Y71F, E81D
Take B4: the results for the IC50 in [3] and in assay [6] were 5.4 ng/mL and 1.5 ng/mL, respectively. Besides, in [4], the “Biacore t/2 diss. [min] 25° C. human” value is 67 min. In addition, in assay [5], the “Biacore t/2 diss. [min] 37° C. human” value came to 50 min. Further, the “Inhibition of IL8-Secretion” value in [7] was 134 ng/mL.

B5: Humanized <TWEAK> 305- antibody 33 (antibody, V domains shown)
VH: QVQLVQSGAEVKKPGSSVKVSCKASGFDFSTYYMSWVRQAPGQGLEWMGTVYVRQGTTYYASWLNGRVTITADESTSTAYMELSSLRSEDTAVYYCARGGYNYDDAFVIWGQGTLVTVSS
VL: B2 VL with D1A, Q3R, V11F, V15T, S77C, P80S
Consider B5, for which the half-maximal inhibitory concentration (IC50) in assay [3] turned out to be 6.7 ng/mL; in assay [6], 1.7 ng/mL. Further, the “Biacore t/2 diss. [min] 25° C. human” value in assay [4] was found to be 127 min. The “Biacore t/2 diss. [min] 37° C. human” value in assay [5] was 99 min. Further, in [7], the “Inhibition of IL8-Secretion” value is 26 ng/mL.

B6: Humanized <TWEAK> 305- antibody 34 (antibody, V domains shown)
VH: B2 VH with T19R
VL: B2 VL with D1A, Q3R, V11F, V15T, S77C, P80S
As to B6, the IC50 in assay [3] was found to be 5.9 ng/mL; in [6], 1.9 ng/mL. The “Biacore t/2 diss. [min] 25° C. human” value in assay [4] amounted to 158 min. For the same molecule, in assay [5], the “Biacore t/2 diss. [min] 37° C. human” value worked out at 185 min. Further, the “Inhibition of IL8-Secretion” value in [7] was 24 ng/mL.

B7: Humanized <TWEAK> 305- antibody 29 (antibody, V domains shown)
VH: B2 VH with T19R, Y80D
VL: B2 VL
Consider B7, for which the IC50 in assay [3] came out at 5.7 ng/mL; in [6], 1.8 ng/mL. Further, in [4], the “Biacore t/2 diss. [min] 25° C. human” value worked out at 146 min. Moreover, the “Biacore t/2 diss. [min] 37° C. human” value in [5] worked out at 195 min. Besides, the “Inhibition of IL8-Secretion” value in assay [7] stood at 78 ng/mL.

B8: Humanized <TWEAK> 305- antibody 30 (antibody, V domains shown)
VH: B2 VH with T19R, R87T
VL: B2 VL with Y71F
Turning to B8, the IC50 is 7.6 ng/mL in assay [3] and 2.3 ng/mL in [6]. For the same molecule, the “Biacore t/2 diss. [min] 25° C. human” value in assay [4] was 50 min. Moreover, in [5], the “Biacore t/2 diss. [min] 37° C. human” value is 45 min. Further, the “Inhibition of IL8-Secretion” value in [7] stood at 207 ng/mL.

B9: Bispecific <Tweak-IL-17> #21 antibody (bispecific antibody, human IgG4 S228P, kappa)
heavy 1: EVQLVESGGGLVQPGGSLRLSCAASGFSLDSYGVHWVRQAPGKGLEWVSVIWSDGTTTYNSALKSRFTISRDNSKNTLYLQMNSLRAEDTAVYYCARDTHYRLYYYAMDYWGQGTTVTVSSASTKGPSVFPLAPCSRSTSESTAALGCLVKDYFPEPVTVSWNSGALTSGVHTFPAVLQSSGLYSLSSVVTVPSSSLGTKTYTCNVDHKPSNTKVDKRVESKYGPPCPPCPAPEFEGGPSVFLFPPKPKDTLMISRTPEVTCVVVDVSQEDPEVQFNWYVDGVEVHNAKTKPREEQFNSTYRVVSVLTVLHQDWLNGKEYKCKVSNKGLPSSIEKTISKAKGQPREPQVCTLPPSQEEMTKNQVSLSCAVKGFYPSDIAVEWESNGQPENNYKTTPPVLDSDGSFFLVSRLTVDKSRWQEGNVFSCSVMHEALHNHYTQKSLSLSLGK
heavy 2: not shown
light: DIVMTQSPLSLPVTPGEPASISCRSSQSLVHSNGDTYFHWYLQKPGQSPQLLIYKVSNRFSGVPDRFSGSGSGTDFTLKISRVEAEDVGVYYCSQTTHAPFTFGQGTKLEIKRTVAAPSVFIFPPSDEQLKSGTASVVCLLNNFYPREAKVQWKVDNALQSGNSQESVTEQDSKDSTYSLSSTLTLSKADYEKHKVYACEVTHQGLSSPVTKSFNRGEC
On to B9, for which, in [8], the “IL-6 IC50 [nM] per valency (IL-17 induced cytokine production, HFLS-RA)” value worked out at 2.71 nM and the “IL-8 IC50 [nM] per valency (IL-17 induced cytokine production, HFLS-RA)” value was determined as 1.71 nM.

B10: Bispecific <Tweak-IL-17> #5 antibody (bispecific antibody, human IgG1, kappa)
heavy: not shown
light: DIQMTQSPSSVSASVGDRVTITCQASQNIYSNLAWYQQKPGKAPKLLIYTASYLASGVPSRFSGSGSGTDYTLTISSLQPEDFATYYCQTAYYNSRPDTVAFGGGTKVEIKRTVAAPSVFIFPPSDEQLKSGTASVVCLLNNFYPREAKVQWKVDNALQSGNSQESVTEQDSKDSTYSLSSTLTLSKADYEKHKVYACEVTHQGLSSPVTKSFNRGEC
In the case of B10, in assay [8], the “IL-6 IC50 [nM] per valency (IL-17 induced cytokine production, HFLS-RA)” value is 1.32 nM and the “IL-8 IC50 [nM] per valency (IL-17 induced cytokine production, HFLS-RA)” value is 1.12 nM. In [9], the “IC50 (nM) per valency, Tweak induced HFLS proliferation (CellTiter Glo)” value turned out to be 0.152 nM.

The values above are taken from patent US20150132307A1 (Hoffmann-La Roche, published 2015).
